Measured values reported in paper PMC5476288 (PLoS Pathogens, 2017).

Target: T1, Flag-IRF3 (human, UniProt Q14653 1-427)
T1 construct: not shown: Flag, N-terminal, kept
T1 sequence (looked up): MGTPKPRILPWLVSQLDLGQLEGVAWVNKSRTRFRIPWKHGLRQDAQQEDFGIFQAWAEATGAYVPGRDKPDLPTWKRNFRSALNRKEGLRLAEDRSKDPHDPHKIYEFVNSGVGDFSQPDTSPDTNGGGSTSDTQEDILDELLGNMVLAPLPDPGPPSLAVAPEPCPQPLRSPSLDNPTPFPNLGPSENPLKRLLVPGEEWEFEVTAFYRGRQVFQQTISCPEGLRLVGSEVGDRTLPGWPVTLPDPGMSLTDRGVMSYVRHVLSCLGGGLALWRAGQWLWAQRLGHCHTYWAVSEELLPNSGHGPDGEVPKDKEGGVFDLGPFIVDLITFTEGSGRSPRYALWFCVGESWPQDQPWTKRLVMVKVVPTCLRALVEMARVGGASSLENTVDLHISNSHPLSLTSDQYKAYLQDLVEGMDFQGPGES
Experiment: pull-down; lysates of 293T cells with ectopic Flag-TBK1 or Flag-IRF3 incubated with GST or the GST-ERRα fusion protein
Details: one partner purified

B1: GST-ERRα fusion protein (natural protein, UniProt P11474 1-423, looked up)
chain: MSSQVVGIEPLYIKAEPASPDSPKGSSETETEPPVALAPGPAPTRCLPGHKEEEDGEGAGPGEQGGGKLVLSSLPKRLCLVCGDVASGYHYGVASCEACKAFFKRTIQGSIEYSCPASNECEITKRRRKACQACRFTKCLRVGMLKEGVRLDRVRGGRQKYKRRPEVDPLPFPGPFPAGPLAVAGGPRKTAAPVNALVSHLLVVEPEKLYAMPDPAGPDGHLPAVATLCDLFDREIVVTISWAKSIPGFSSLSLSDQMSVLQSVWMEVLVLGVAQRSLPLQDELAFAEDLVLDEEGARAAGLGELGAALLQLVRRLQALRLEREEYVLLKALALANSDSVHIEDAEAVEQLREALHEALLEYEAGRAGPGGGAERRRAGRLLLTLPLLRQTAGKVLAHFYGVKLEGKVPMHKLFLEMLEAMMD
notes: also called estrogen-related receptor α
- binding result: binds
